Earlier results in paper PMC7349879.
Values belong to the substance of their own block, whether it stands above or below them.

Tests used:
[1] = biological target: EpCAM cis-dimer (Homo sapiens) (UniProt P16422)
EpCAM (Homo sapiens) = EpCAM (Homo sapiens) (UniProt P16422)
β-catenin (Homo sapiens) = β-catenin (Homo sapiens) (UniProt P35222)
UniProt P35222, sequence (P35222 2-781): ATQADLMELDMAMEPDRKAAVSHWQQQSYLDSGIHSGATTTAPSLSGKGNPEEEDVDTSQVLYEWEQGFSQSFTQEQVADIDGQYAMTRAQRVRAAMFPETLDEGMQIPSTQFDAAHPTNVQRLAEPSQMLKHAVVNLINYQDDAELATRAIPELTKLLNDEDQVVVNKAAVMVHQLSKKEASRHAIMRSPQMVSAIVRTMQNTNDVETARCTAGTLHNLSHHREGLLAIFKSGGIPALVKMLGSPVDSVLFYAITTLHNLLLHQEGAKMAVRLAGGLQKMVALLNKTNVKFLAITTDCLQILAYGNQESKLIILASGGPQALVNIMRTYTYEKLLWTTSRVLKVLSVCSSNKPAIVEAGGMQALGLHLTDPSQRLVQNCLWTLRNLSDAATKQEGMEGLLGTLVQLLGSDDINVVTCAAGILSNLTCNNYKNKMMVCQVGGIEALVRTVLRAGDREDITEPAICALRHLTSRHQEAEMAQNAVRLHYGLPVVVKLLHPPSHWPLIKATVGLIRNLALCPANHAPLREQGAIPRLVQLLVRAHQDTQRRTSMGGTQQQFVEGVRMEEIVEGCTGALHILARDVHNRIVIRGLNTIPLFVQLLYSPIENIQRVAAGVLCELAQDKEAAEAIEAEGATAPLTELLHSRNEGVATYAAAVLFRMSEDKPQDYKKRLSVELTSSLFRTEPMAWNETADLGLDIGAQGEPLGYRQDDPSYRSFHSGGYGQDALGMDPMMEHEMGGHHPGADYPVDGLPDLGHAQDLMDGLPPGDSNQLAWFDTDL

Kd [1]: 10000 nM
Substance: EpCAM cis-dimer (from UniProt P16422)

Kd (EpCAM (Homo sapiens)): < 10 nM
Substance: EpCAM (from UniProt P16422)

Kd (β-catenin (Homo sapiens)): 1080 nM
Substance: FHL2 (from UniProt Q14192)
